This test has as its system hippocampal proteins. Description: DIA quantification proteomics, hippocampus of Mdga2+/- vs WT mice. Also noted: species or system mouse. Conditions: S3 Table, downregulated DEPs; for log2FC: Mdga2+/- vs WT mouse hippocampus (HET-HIP-VS-WT-HIP), SE, pvalue and adj_pvalue in own columns c3-c5; for Class: regulation class of the protein, HET-HIP-VS-WT-HIP. The gist of the method:
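Hippocampi from 1.5–2-month-old male Mdga2+/− mice and WT littermates; 100 μg protein trypsin-digested, peptides high-pH fractionated. DDA-built spectral library, DIA by nano-LC–MS/MS with Spectronaut and mProphet QC. DEPs called at fold change >1.1 and p <0.05.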

B1: sp¦P97333¦NRP1_MOUSE (protein, UniProt P97333 22-923, looked up)
Neuropilin-1: FRSDKCGGTIKIENPGYLTSPGYPHSYHPSEKCEWLIQAPEPYQRIMINFNPHFDLEDRDCKYDYVEVIDGENEGGRLWGKFCGKIAPSPVVSSGPFLFIKFVSDYETHGAGFSIRYEIFKRGPECSQNYTAPTGVIKSPGFPEKYPNSLECTYIIFAPKMSEIILEFESFDLEQDSNPPGGMFCRYDRLEIWDGFPEVGPHIGRYCGQKTPGRIRSSSGVLSMVFYTDSAIAKEGFSANYSVLQSSISEDFKCMEALGMESGEIHSDQITASSQYGTNWSVERSRLNYPENGWTPGEDSYKEWIQVDLGLLRFVTAVGTQGAISKETKKKYYVKTYRVDISSNGEDWISLKEGNKAIIFQGNTNPTDVVLGVFSKPLITRFVRIKPVSWETGISMRFEVYGCKITDYPCSGMLGMVSGLISDSQITASNQADRNWMPENIRLVTSRTGWALPPSPHPYTNEWLQVDLGDEKIVRGVIIQGGKHRENKVFMRKFKIAYSNNGSDWKTIMDDSKRKAKSFEGNNNYDTPELRTFSPLSTRFIRIYPERATHSGLGLRMELLGCEVEAPTAGPTTPNGNPVDECDDDQANCHSGTGDDFQLTGGTTVLATEKPTIIDSTIQSEFPTYGFNCEFGWGSHKTFCHWEHDSHAQLRWSVLTSKTGPIQDHTGDGNFIYSQADENQKGKVARLVSPVVYSQSSAHCMTFWYHMSGSHVGTLRVKLRYQKPEEYDQLVWMVVGHQGDHWKEGRVLLHKSLKLYQVIFEGEIGKGNLGGIAVDDISINNHISQEDCAKPTDLDKKNTEIKIDETGSTPGYEGEGEGDKNISRKPGNVLKTLDPILITIIAMSALGVLLGAVCGVVLYCACWHNGMSERNLSALENYNFELVDGVKLKKDKLNPQSNYSEA
Consider B1, for which the log2FC is -3.13 and the Class entry is on record as “Down”.

B2: sp¦Q3UH99¦SHSA6_MOUSE (protein, UniProt Q3UH99 31-525, looked up)
Protein shisa-6: ARGRSGNRTLNAGAVGGRRAGGALARGGRELNSTARASGVPEAGSRRGQSAAAAAAAAAAASATVTYETCWGYYDVSGQYDKEFECNNSESGYLYCCGTCYYRFCCKKRHEKLDQRQCTNYQSPVWVQTPSTKVVSPGPENKYDPEKDKTNFTVYITCGVIAFVIVAGVFAKVSYDKAHRPPREMNIHRALADILRQQGPIPIAHCERETISAIDTSPKENTPVRSTSKNHYTPVRTAKQTPGDRQYNHPILSSATQTPTHEKPRMNNILTSATEPYDLSFSRSYQNLAHLPPSYESAVKTNPSKYSSLKRLTDKEADEYYMRRRHLPDLAARGTLPLNVIQMSQQKPLPRERPRRPIRAMSQDRVLSPRRGLPDEFGMPYDRILSDEQLLSTERLHSQDPLLSPERTAFPEQSLSRAISHTDVFVSTPVLDRYRMTKMHSHPSASNNSYATLGQSQTAAKRHAFASRRHNTVEQLHYIPGHHTCYTASKTEVTV
As for B2, the log2FC was -2.769 and the Class entry is “Down”.

B3: sp¦P60755¦MDGA2_MOUSE (protein, UniProt P60755 26-924, looked up)
MAM domain-containing …: PPTVRIVHSGLACNIEEERYSERVYTIREGETLELTCLVTGHPRPQIRWTKTAGSASDRFQDSSVFNETLRITNIQRHQGGRYYCKAENGLGSPAIKSIRVDVYYLDDPVVTVHQSIGEAKEQFYYERTVFLRCVANSNPPVRYSWRRGQEVLLQGSDKGVEIYEPFFTQGETKILKLKNLRPQDYANYSCIASVRNVCNIPDKMVSFRLSNKTASPSIKLLVDDPIVVNPGEAITLVCVTTGGEPTPSLTWVRSFGTLPEKIVLNGGTLTIPAITSDDAGTYSCIANNNVGNPAKKSTNIIVRALKKGRFWITPDPYHKDDNIQIGREVKISCQVEAVPSEELTFSWFKNGRPLRSSERMVITQTDPDVSPGTTNLDIIDLKFTDFGTYTCVASLKGGGISDISIDVNISSSTVPPNLTVPQEKSPLVTREGDTIELQCQVTGKPKPIILWSRADKEVAMPDGTMQMESYDGTLRIVNVSREMSGMYRCQTSQYNGFNVKPREALVQLIVQYPPAVEPAFLEIRQGQDRSVTMSCRVLRAYPIRVLTYEWRLGNKLLRTGQFDSQEYTEYPLKSLSNENYGVYNCSIINEAGAGRCSFLVTGKAYAPEFYYDTYNPVWQNRHRVYSYSLQWTQMNPDAVDRIVAYRLGIRQAGQQRWWEQEIKINGNIQKGELITYNLTELIKPEAYEVRLTPLTKFGEGDSTIRVIKYTGEFHCGFEDGNICLFTQDDTDNFDWTKQSTATRNTKYTPNTGPSADRSGSKEGFYMYIETSRPRLEGEKARLLSPVFSIAPKNPYGPTNSAYCFSFFYHMYGQHIGVLNVYLRLKGQTTIENPLWSSSGNKGQRWNEAHVNIYPITSFQLIFEGIRGPGIEGDIAIDDVSIAEGECAKQDLPTKNSVD
As for B3, the log2FC is on record as -3.064 and the Class entry is given as “Down”.

B4: sp¦P05532¦KIT_MOUSE (protein, UniProt P05532 25-979, looked up)
Mast/stem cell growth factor …: SQPSASPGEPSPPSIHPAQSELIVEAGDTLSLTCIDPDFVRWTFKTYFNEMVENKKNEWIQEKAEATRTGTYTCSNSNGLTSSIYVFVRDPAKLFLVGLPLFGKEDSDALVRCPLTDPQVSNYSLIECDGKSLPTDLTFVPNPKAGITIKNVKRAYHRLCVRCAAQRDGTWLHSDKFTLKVRAAIKAIPVVSVPETSHLLKKGDTFTVVCTIKDVSTSVNSMWLKMNPQPQHIAQVKHNSWHRGDFNYERQETLTISSARVDDSGVFMCYANNTFGSANVTTTLKVVEKGFINISPVKNTTVFVTDGENVDLVVEYEAYPKPEHQQWIYMNRTSANKGKDYVKSDNKSNIRYVNQLRLTRLKGTEGGTYTFLVSNSDASASVTFNVYVNTKPEILTYDRLINGMLQCVAEGFPEPTIDWYFCTGAEQRCTTPVSPVDVQVQNVSVSPFGKLVVQSSIDSSVFRHNGTVECKASNDVGKSSAFFNFAFKGNNKEQIQAHTLFTPLLIGFVVAAGAMGIIVMVLTYKYLQKPMYEVQWKVVEEINGNNYVYIDPTQLPYDHKWEFPRNRLSFGKTLGAGAFGKVVEATAYGLIKSDAAMTVAVKMLKPSAHLTEREALMSELKVLSYLGNHMNIVNLLGACTVGGPTLVITEYCCYGDLLNFLRRKRDSFIFSKQEEQAEAALYKNLLHSTEPSCDSSNEYMDMKPGVSYVVPTKTDKRRSARIDSYIERDVTPAIMEDDELALDLDDLLSFSYQVAKGMAFLASKNCIHRDLAARNILLTHGRITKICDFGLARDIRNDSNYVVKGNARLPVKWMAPESIFSCVYTFESDVWSYGIFLWELFSLGSSPYPGMPVDSKFYKMIKEGFRMVSPEHAPAEMYDVMKTCWDADPLKRPTFKQVVQLIEKQISDSTKHIYSNLANCNPNPENPVVVDHSVRVNSVGSSASSTQPLLVHEDA
As for B4, the log2FC is -2.731 and the Class result is recorded as “Down”.

(Values after article PMC11960969, “Mdga2 deficiency leads to an aberrant activation of BDNF/TrkB signaling that underlies autism-relevant synaptic and behavioral changes in mice” (PLOS Biology, 2025).)
